The text below walks through data of patent US20210115143A1.

In this assay the target is hPD-L1-Fc fusion protein (made in the filing, Example 1) (human) (UniProt Q9NZQ7). Nature of the assay: SPR, Biacore X100, hPD-L1-Fc on CM5 chip, antibody in solution, 25 C.
Chain of hPD-L1-Fc fusion protein (made in the filing, Example 1) (human) (Q9NZQ7 19-238 limits assumed): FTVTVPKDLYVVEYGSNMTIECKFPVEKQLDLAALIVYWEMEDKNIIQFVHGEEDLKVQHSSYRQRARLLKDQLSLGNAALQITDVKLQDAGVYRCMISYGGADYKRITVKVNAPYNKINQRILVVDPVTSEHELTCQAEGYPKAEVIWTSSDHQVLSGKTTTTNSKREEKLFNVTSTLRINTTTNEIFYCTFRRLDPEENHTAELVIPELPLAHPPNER

B1: B50-6 mAb (anti-hPD-L1, human IgG1, lambda) (antibody, part only; not given: human IgG1 and lambda constants, part only)
heavy, part: QVQLQQSGPGLVKPSQTLSLTCAISGDSVSSTKAAWYWIRQSPSRGLEWLGRTYFRSKWYNDYADSVKSRLTINPDTSKNQFSLQLKSVSPEDTAVYYCARGQYTAFDIWGQGTMVTVSS
light, part: QVQLVQSGAEVKKPASSVKVSCTASGGSFSTYAISWVRQAPGQGLEWMGGIIPIFGTTKYAQRFQGRVTITADESTTTAYMELSSLISDDTALYYCTTSRGFSYGWFDYWGQGTLVTVSS
Regarding B1, the Kd is 81.9 nM, the dissociation rate constant (koff) came out at 0.0137 s⁻¹ and the on-rate constant (kon) amounted to 167000 M⁻¹ s⁻¹.
